The target of test [1] is T1, human FcRn complex (FCGRT and beta-2 microglobulin), recombinant, purified (human, UniProt P55899 24-297; P61769 21-119). The test is described as follows: -; pH6.
For test [2], the target named is T1, human FcRn complex (FCGRT and beta-2 …). Briefly: -; pH7.4.
For test [3] the target is unchanged. The test is described as follows: -; pH6. The source holds these as a separate data set.
The target is the same in test [4]. The test is described as follows: ?; pH 6.
Test [5] has the same target. The test is described as follows: -; pH7.4. This is another data set of the same source.
For test [6] the target is unchanged. The test is described as follows: ?; pH 7.4.
For test [7] the target is unchanged. Briefly: ?; pH 6. This is another data set of the same source.
The target is the same in test [8]. Briefly: -; pH7.4. The source holds these as a separate data set.
Test [9] shares this target. The test is described as follows: -; pH6. The source holds these as a separate data set.
Test [10] shares this target. Briefly: ?; pH 7.4. The source holds these as a separate data set.
Test [11] shares this target. The test is described as follows: -; pH7.4. This is another data set of the same source.
Test [12] has the same target. The test is described as follows: ?; pH 6. The source holds these as a separate data set.
Test [13] shares this target. Briefly: -; pH6. The source holds these as a separate data set.
Test [14] has the same target. Briefly: ?; pH 7.4. This is another data set of the same source.

T1 sequence (P55899 24-297, chain 1 of 2): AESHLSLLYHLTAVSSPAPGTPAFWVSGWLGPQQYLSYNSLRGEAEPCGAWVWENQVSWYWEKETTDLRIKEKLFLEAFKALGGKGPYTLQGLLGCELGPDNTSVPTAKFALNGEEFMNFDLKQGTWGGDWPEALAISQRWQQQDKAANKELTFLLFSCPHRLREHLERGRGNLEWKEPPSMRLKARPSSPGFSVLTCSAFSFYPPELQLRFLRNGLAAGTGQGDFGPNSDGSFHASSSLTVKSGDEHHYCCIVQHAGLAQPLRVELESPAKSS
T1 sequence (P61769 21-119, chain 2 of 2): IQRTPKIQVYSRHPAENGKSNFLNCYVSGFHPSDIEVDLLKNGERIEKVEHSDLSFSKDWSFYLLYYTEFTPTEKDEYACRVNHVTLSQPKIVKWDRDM

B1: anti-gD antibody comprising a hIgG1 with a YQAY (Q95, M252Y/T307Q/Q311A/N434Y) Fc modification (anti-gD-hIgG1-YQAY) (antibody)
Fc: PAPELLGGPSVFLFPPKPKDTLYISRTPEVTCVVVDVSHEDPEVKFNWYVDGVEVHNAKTKPREEQYNSTYRVVSVLQVLHADWLNGKEYKCKVSNKALPAPIEKTISKAKGQPREPQVYTLPPSRDELTKNQVSLTCLVKGFYPSDIAVEWESNGQPENNYKTTPPVLDSDGSFFLYSKLTVDKSRWQQGNVFSCSVMHEALHYHYTQKSLSLSPGK
Regarding B1, the Kd (in general, the concentration at which binding is half-saturated) in [1] is 2 nM; in test [2], 333 nM; in test [3], 2 nM; in test [4], 2 nM; in [5] it was 333 nM; in test [6] it was 333 nM. Moreover, the dissociation constant Kd came to 2 nM in test [7], 333 nM in test [8], 2 nM in [9] and 333 nM in test [10].

B2: anti-BACE1 hIgG1 antibody, Fc modification Q95 (M252Y/T307Q/Q311A/N434Y) (antibody)
Fc: PAPELLGGPSVFLFPPKPKDTLYISRTPEVTCVVVDVSHEDPEVKFNWYVDGVEVHNAKTKPREEQYNSTYRVVSVLQVLHADWLNGKEYKCKVSNKALPAPIEKTISKAKGQPREPQVYTLPPSRDELTKNQVSLTCLVKGFYPSDIAVEWESNGQPENNYKTTPPVLDSDGSFFLYSKLTVDKSRWQQGNVFSCSVMHEALHYHYTQKSLSLSPGK
For the molecule B2, the Kd is 333 nM in test [11], 1.98 nM in test [12], 2 nM in test [13] and 333 nM in test [14].

(Values after patent publication US20220033520A1 (published 2022).)
